{"source": "patent US8956838B2", "about": "“Carboxyl esterase polypeptides” (B.R.A.I.N., priority 2006, dated 2015)", "type_in_all_cases": "biochemical", "key": {"[1]": {"test": "Titration assay with vinyl acid esters", "conditions": "10 mM, 37° C., pH 7.0", "method": "(§1) Enzyme activities on the substrates triacetin, tripropionin, tributyrin, tricaprylene, trilaurin and vinyl-substrates (vinyl-acetate, ˜propionate, ˜butyrate, ˜caproate, ˜caprylate and ˜laurate) were determined using a standard titration assay with minor modifications. Tests were performed with a Methrom 718 STAT potentiometric titrator (Herisau, Switzerland) and by using 10 mM NaOH for titration. The substrates at 10 mM concentration were emulsified in 20 ml reaction buffer containing 2 mM Tris/HCl pH 7.0. After addition of 7.5 μg of the purified enzyme the NaOH consumption was recorded at a reaction temperature of 37° C. One unit was defined as the amount of enzyme that released […] of fatty acid per min."}, "[2]": {"test": "Titration assay with triglycerides", "conditions": "10 mM, 37° C., pH 7.0", "method": "as §1"}, "[3]": {"test": "Determination of thermal stability", "method": "To assay the thermostability of the enzymes they were incubated at different temperatures for one hour and the residual activity assayed at 10 minute intervals. Residual activity was measured using pNP-caproate as substrate as described above."}, "[4]": {"test": "Substrate specificity on pNP-substrates with importance for pharmaceutical products", "conditions": "30 minute, 40° C., pH 7.5", "method": "The substrate range of the two enzymes was determined using pNP esters of the following: benzoate, 2-(4-isobutylphenyl)propanoate (Ibuprofen), 2-phenylpropanoate, 3-phenylbutanoate, cyclohexanoate, 2-(3-benzoylphenyl)propanoate, 2-naphthoate, 1-naphthoate, adamantanoate and 2-(6-methoxynaphthalene-2-yl)propanoate (Naproxen). Activity was determined at 410 nm after 30 minute incubation at 40° C. The reaction mixture was 950 μl buffer (100 mM Tris, pH 7.5), 50 μl substrate (5 mg/ml in DMSO) and 1 μg enzyme."}, "[5]": {"test": "Effect of bivalent cations and EDTA on catalytic activity"}, "[6]": {"test": "Enzyme activity with pNP-acylesters of different chain length", "conditions": "4 mM, 45° C., pH 7.2", "method": "Enzyme activity tests were performed by incubating the enzyme with 4 mM substrate at 45° C. in 100 mM Tris-HCl buffer at pH 7.2, unless otherwise indicated. The reaction was measured at 410 nm. One unit is defined as the amount of enzyme catalyzing the appearance of 1 μmol of free p-nitrophenol/min. Enzyme activity against pNP-acylesters (butyrate, valerate, caproate, octanoate, decanoate and palmitate) was tested under the above conditions. […] The enzyme according to SEQ ID NO: 6 converted pNP-caproate with a specific activity of 80.0 U/mg."}, "[7]": {"test": "Determination of pH optimum by titration", "conditions": "incubation for up to 48 hours, up to pH 12 (data not shown)", "method": "The pH optimum for the enzymes was determined using tributyrin as substrate. The incubation conditions were 20 ml buffer (2.5 mM phosphate buffer [pH 4-7], 2.5 mM Tris/HCl buffer [pH 7-11] or 2.5 mM glycine buffer [pH 9-11], supplemented with 100 mM NaCl) stirred at a constant temperature of 37° C. The esterase substrate tributyrin (final concentration of 2 mM) was added to 5 ml of the corresponding buffer at 37° C., emulsified and added to the whole preparation. This substrate emulsion was held constant at the correct pH automatically by the titrator (718 STAT Titrino; Metrohm, Herisau, Switzerland) for 2 min and this served as the control. […]"}, "[8]": {"test": "Solvent stability, residual activity", "conditions": "for Residual activity after 1 h incubation in the presence of solvent: 1 h at 30° C., measured at 45° C.; for activity in the presence of solvent, levels up to: both concentrations (15% and 30% v/v)", "method": "The stability of the enzymes was determined in the presence of the following solvents: DMSO, isopropanol, methanol, dimethylformamide, acetone and acetonitrile. The enzymes were incubated for 1 hour at 30° C. in the presence of either 15% (v/v) or 30% (v/v) of the solvents and the residual activity was measured at 45° C. The substrate used was pNP-butyrate."}}}
{"molecule": "EstA3: recombinant enzyme having carboxyl esterase activity, amino acid sequence SEQ ID NO: 2, family VIII of bacterial lipolytic enzymes (protein, metagenomic sequence) MSAEELGFLPDRLARISDHIQTNYLDNGKLPFASLLIGRGDDIALQWSSGVADDAIFRIASMTKPVTSVAFMQLVEQGKVALTDPVAKYIPEFAKLGVFVAGGGNIPFVSRPPTMPMRIVDVLRHTTGFTYSFQERSNIDAAYRKTDVESWTRSTSQSFIDTLAEIPLEFDPGTQWNYSVSTDVLGILIERISGQSLPDYFRDHIFAPLGMVDTCFTVPADKAARIPQCFAFDPATKMKLFDEAGASSLWTKGWSFNSGGGGLASSVADYHRFCRMLLNGGALDGIQIISPKTLELMTANHLPGGQDLTQMSKSLFSEAEMAGIGFGLGFATTIDSVATLTPCSTGDFYWGGMYSTAFFVDPVEDIIMIFMTQLMPSSTYPVRREIKTMIYSALAA", "values": [{"measurement": "specific activity", "setting": "[1]; substrate vinyl acetate (C2)", "result": 107.5, "unit": "U/mg"}, {"measurement": "specific activity", "setting": "[1]; substrate vinyl butyrate (C4)", "result": 387.5, "unit": "U/mg"}, {"measurement": "specific activity", "setting": "[1]; substrate vinyl caproate (C6)", "result": 237.5, "unit": "U/mg"}, {"measurement": "specific activity", "setting": "[1]; substrate vinyl caprylate (C8)", "result": 155.0, "unit": "U/mg"}, {"measurement": "specific activity", "setting": "[1]; substrate vinyl laurinate (C12)", "result": 7.5, "unit": "U/mg"}, {"measurement": "specific activity", "setting": "[1]; substrate vinyl propionate (C3)", "result": 380.0, "unit": "U/mg"}, {"measurement": "specific activity", "setting": "[2]; substrate triacetin (C2)", "result": 147.5, "unit": "U/mg"}, {"measurement": "specific activity", "setting": "[2]; substrate tributyrin (C4)", "result": 167.5, "unit": "U/mg"}, {"measurement": "thermal stability, in words", "setting": "[3]; incubated for at least 60 minutes at 40° C.", "result": "without a major loss of activity"}, {"measurement": "thermal stability, in words", "setting": "[3]; incubation at temperatures above 45° C. for more than 60 minutes (data not shown)", "result": "rapid inactivation"}, {"measurement": "specific activity", "setting": "[4]; pNP-ester of 1-naphthoate", "result": 0, "unit": "U/mg"}, {"measurement": "specific activity", "setting": "[4]; pNP-ester of 2-(3-benzoylphenyl) propanoate", "result": 26.7, "unit": "U/mg"}, {"measurement": "specific activity", "setting": "[4]; pNP-ester of 2-(4-isobutylphenyl) propanoate (Ibuprofen)", "result": 7.2, "unit": "U/mg"}, {"measurement": "specific activity", "setting": "[4]; pNP-ester of 2-(6-methoxy-naphthalen-2-yl) propanoate (Naproxen)", "result": 26.7, "unit": "U/mg"}, {"measurement": "specific activity", "setting": "[4]; pNP-ester of 2-naphthoate", "result": 0, "unit": "U/mg"}, {"measurement": "specific activity", "setting": "[4]; pNP-ester of 2-phenylpropanoate", "result": 21.0, "unit": "U/mg"}, {"measurement": "specific activity", "setting": "[4]; pNP-ester of 3-phenylbutanoate", "result": 31.6, "unit": "U/mg"}, {"measurement": "specific activity", "setting": "[4]; pNP-ester of adamantanoate", "result": 0, "unit": "U/mg"}, {"measurement": "specific activity", "setting": "[4]; pNP-ester of benzoate", "result": 9.4, "unit": "U/mg"}, {"measurement": "specific activity", "setting": "[4]; pNP-ester of cyclohexanoate", "result": 50.0, "unit": "U/mg"}, {"measurement": "effect on activity, in words", "setting": "[5]; Ca^2+, Cu2+, Mg^2+, Zn^2+, Rb^2+ and EDTA", "result": "inhibitory effect"}, {"measurement": "stimulation of catalytic activity", "setting": "[5]; in the presence of Co^2+", "result": "about 130%"}, {"measurement": "specific activity", "setting": "[6]; substrate pNP-butyrate (C4)", "result": 513.6, "unit": "U/mg"}, {"measurement": "specific activity", "setting": "[6]; substrate pNP-caproate (C6)", "result": 425.7, "unit": "U/mg"}, {"measurement": "specific activity", "setting": "[6]; substrate pNP-decanoate (C10)", "result": 0, "unit": "U/mg"}, {"measurement": "specific activity", "setting": "[6]; substrate pNP-octanoate (C8)", "result": 3.6, "unit": "U/mg"}, {"measurement": "specific activity", "setting": "[6]; substrate pNP-palmitate (C16)", "result": 0, "unit": "U/mg"}, {"measurement": "specific activity", "setting": "[6]; substrate pNP-valerate (C5)", "result": 425.7, "unit": "U/mg"}, {"measurement": "stability under alkaline conditions, in words", "setting": "[7]", "result": "extremely stable with little loss of activity"}, {"measurement": "Residual activity after 1 h incubation in the presence of solvent", "setting": "[8]; 15% (v/v) Acetone", "result": 152, "unit": "%"}, {"measurement": "Residual activity after 1 h incubation in the presence of solvent", "setting": "[8]; 15% (v/v) Acetonitrile", "result": 110, "unit": "%"}, {"measurement": "Residual activity after 1 h incubation in the presence of solvent", "setting": "[8]; 15% (v/v) DMSO", "result": 102, "unit": "%"}, {"measurement": "Residual activity after 1 h incubation in the presence of solvent", "setting": "[8]; 15% (v/v) Dimethylformamid", "result": 125, "unit": "%"}, {"measurement": "Residual activity after 1 h incubation in the presence of solvent", "setting": "[8]; 15% (v/v) Isopropanol", "result": 155, "unit": "%"}, {"measurement": "Residual activity after 1 h incubation in the presence of solvent", "setting": "[8]; 15% (v/v) Methanol", "result": 111, "unit": "%"}, {"measurement": "Residual activity after 1 h incubation in the presence of solvent", "setting": "[8]; 30% (v/v) Acetone", "result": 155, "unit": "%"}, {"measurement": "Residual activity after 1 h incubation in the presence of solvent", "setting": "[8]; 30% (v/v) Acetonitrile", "result": 87, "unit": "%"}, {"measurement": "Residual activity after 1 h incubation in the presence of solvent", "setting": "[8]; 30% (v/v) DMSO", "result": 104, "unit": "%"}, {"measurement": "Residual activity after 1 h incubation in the presence of solvent", "setting": "[8]; 30% (v/v) Dimethylformamid", "result": 128, "unit": "%"}, {"measurement": "Residual activity after 1 h incubation in the presence of solvent", "setting": "[8]; 30% (v/v) Isopropanol", "result": 117, "unit": "%"}, {"measurement": "Residual activity after 1 h incubation in the presence of solvent", "setting": "[8]; 30% (v/v) Methanol", "result": 130, "unit": "%"}, {"measurement": "activity in the presence of solvent, levels up to", "setting": "[8]; acetone", "result": "≤ 155", "unit": "%"}, {"measurement": "activity in the presence of solvent, levels up to", "setting": "[8]; dimethylformamide", "result": "up to 128%"}]}
